# Results from article PMC2930513.
# How the values were obtained:
# [1] = biological target: HIV-1 BaL Env trimer (cleaved gp120/gp41) on Gag-Env VLPs (HIV-1 strain BaL); assay: native gel or EMSA
# [2] = biological target: HIV-1 JR-FL Env trimer (cleaved gp120/gp41) from JR-FL Gag-Env VLPs (HIV-1 strain JR-FL); assay: native gel or EMSA
Substance,stoichiometry N [1],stoichiometry N [2]
HIV-1 BaL Env trimer (cleaved gp120/gp41) on Gag-Env VLPs (complex),3,
HIV-1 JR-FL Env trimer (cleaved gp120/gp41) from JR-FL Gag-Env VLPs (complex),,3
